Source: patent US20220064329A1 (Novo Nordisk, published 2022)
Where a chain is given by its changes, count along the chain named. Names may count otherwise.

B1: VH SEQ ID NO 642 / VL SEQ ID NO 318 (antibody, IgG4, V domains shown)
VH: QVQLQESGPGLVKPSQTLSLTCTVSGYSISSDSAWSWIRQPPGKGLEWIGYIYYSGSTNYNPSLKSRVTISVDTSKNQFSLKLSSVTAADTAVYYCARSVNYYGNSFAVGYWGQGTSVTVSS
VL: EIVLTQSPATLSLSPGERATLSCRASQGISDYLHWYQQKPGEAPRLLIKYTSQPATGIPARFSGSGSGTDFTLTISSLEPEDFAVYYCQNGHSFPLTFGQGTKLEIK
notes: humanized 11F2; IgG4 S228P/kappa
B2: VH SEQ ID NO 514 / VL SEQ ID NO 342 (antibody, IgG4, V domains shown)
VH: B1 VH with K13E, Q16D, T23A, S30T, G45K, Y53Q, I70M, V72R, A89L, S117L
VL: B1 VL with E42Q, T69R, Q100A, I106L
notes: as for B1
B3: VH SEQ ID NO 514 / VL SEQ ID NO 326 (antibody, IgG4, V domains shown)
VH: B1 VH with K13E, Q16D, T23A, S30T, G45K, Y53Q, I70M, V72R, A89L, S117L
VL: B1 VL with A84G, Q100A, I106L
notes: as for B1
B4: VH SEQ ID NO 642 / VL SEQ ID NO 430 (antibody, IgG4, V domains shown)
VH: B1 VH
VL: B1 VL with I29V, H34A, E42Q, T51A, A84G
notes: as for B1
B5: VH SEQ ID NO 650 / VL SEQ ID NO 318 (antibody, IgG4, V domains shown)
VH: B1 VH with G45K, Y53Q, V72R, Y111P, S117L
VL: B1 VL
notes: as for B1
B6: VH SEQ ID NO 650 / VL SEQ ID NO 414 (antibody, IgG4, V domains shown)
VH: B1 VH with G45K, Y53Q, V72R, Y111P, S117L
VL: B1 VL with I29V, H34A, E42Q, T51A
notes: as for B1
B7: VH SEQ ID NO 642 / VL SEQ ID NO 454 (antibody, IgG4, V domains shown)
VH: B1 VH
VL: B1 VL with I29V, T51A
notes: as for B1
B8: VH SEQ ID NO 650 / VL SEQ ID NO 334 (antibody, IgG4, V domains shown)
VH: B1 VH with G45K, Y53Q, V72R, Y111P, S117L
VL: B1 VL with E42Q, T51A
notes: as for B1
B9: VH SEQ ID NO 650 / VL SEQ ID NO 494 (antibody, IgG4, V domains shown)
VH: B1 VH with G45K, Y53Q, V72R, Y111P, S117L
VL: B1 VL with I29V, E42Q, T51A, F83V
notes: as for B1
B10: VH SEQ ID NO 642 / VL SEQ ID NO 478 (antibody, IgG4, V domains shown)
VH: B1 VH
VL: B1 VL with I29V, E42Q, T51A, N90Q
notes: as for B1
B11: VH SEQ ID NO 650 / VL SEQ ID NO 454 (antibody, IgG4, V domains shown)
VH: B1 VH with G45K, Y53Q, V72R, Y111P, S117L
VL: B1 VL with I29V, T51A
notes: as for B1
B12: VH SEQ ID NO 642 / VL SEQ ID NO 438 (antibody, IgG4, V domains shown)
VH: B1 VH
VL: B1 VL with I29V, H34A, E42Q, T51A, F83V
notes: as for B1
B13: VH SEQ ID NO 642 / VL SEQ ID NO 486 (antibody, IgG4, V domains shown)
VH: B1 VH
VL: B1 VL with I29V, E42Q, T51A, A84G
notes: as for B1
B14: VH SEQ ID NO 650 / VL SEQ ID NO 374 (antibody, IgG4, V domains shown)
VH: B1 VH with G45K, Y53Q, V72R, Y111P, S117L
VL: B1 VL with I29L, H34A, E42Q
notes: as for B1
B15: VH SEQ ID NO 642 / VL SEQ ID NO 358 (antibody, IgG4, V domains shown)
VH: B1 VH
VL: B1 VL with E42Q
notes: as for B1
B16: VH SEQ ID NO 650 / VL SEQ ID NO 422 (antibody, IgG4, V domains shown)
VH: B1 VH with G45K, Y53Q, V72R, Y111P, S117L
VL: B1 VL with I29V, H34A, E42Q, T51A, N90Q
notes: as for B1
B17: VH SEQ ID NO 650 / VL SEQ ID NO 446 (antibody, IgG4, V domains shown)
VH: B1 VH with G45K, Y53Q, V72R, Y111P, S117L
VL: B1 VL with I29V, H34A, E42Q
notes: as for B1
B18: VH SEQ ID NO 642 / VL SEQ ID NO 470 (antibody, IgG4, V domains shown)
VH: B1 VH
VL: B1 VL with I29V, E42Q, T51A
notes: as for B1
B19: VH SEQ ID NO 650 / VL SEQ ID NO 470 (antibody, IgG4, V domains shown)
VH: B1 VH with G45K, Y53Q, V72R, Y111P, S117L
VL: B1 VL with I29V, E42Q, T51A
notes: as for B1
B20: VH SEQ ID NO 642 / VL SEQ ID NO 462 (antibody, IgG4, V domains shown)
VH: B1 VH
VL: B1 VL with I29V, E42Q, T51A, Q100A
notes: as for B1
B21: VH SEQ ID NO 642 / VL SEQ ID NO 382 (antibody, IgG4, V domains shown)
VH: B1 VH
VL: B1 VL with I29L, T51A
notes: as for B1
B22: VH SEQ ID NO 650 / VL SEQ ID NO 462 (antibody, IgG4, V domains shown)
VH: B1 VH with G45K, Y53Q, V72R, Y111P, S117L
VL: B1 VL with I29V, E42Q, T51A, Q100A
notes: as for B1
B23: VH SEQ ID NO 650 / VL SEQ ID NO 326 (antibody, IgG4, V domains shown)
VH: B1 VH with G45K, Y53Q, V72R, Y111P, S117L
VL: B1 VL with A84G, Q100A, I106L
notes: as for B1
B24: VH SEQ ID NO 650 / VL SEQ ID NO 438 (antibody, IgG4, V domains shown)
VH: B1 VH with G45K, Y53Q, V72R, Y111P, S117L
VL: B1 VL with I29V, H34A, E42Q, T51A, F83V
notes: as for B1
B25: VH SEQ ID NO 642 / VL SEQ ID NO 350 (antibody, IgG4, V domains shown)
VH: B1 VH
VL: B1 VL with E42Q, Q100A, I106L
notes: as for B1
B26: VH SEQ ID NO 650 / VL SEQ ID NO 382 (antibody, IgG4, V domains shown)
VH: B1 VH with G45K, Y53Q, V72R, Y111P, S117L
VL: B1 VL with I29L, T51A
notes: as for B1
B27: VH SEQ ID NO 650 / VL SEQ ID NO 342 (antibody, IgG4, V domains shown)
VH: B1 VH with G45K, Y53Q, V72R, Y111P, S117L
VL: B1 VL with E42Q, T69R, Q100A, I106L
notes: as for B1
B28: VH SEQ ID NO 642 / VL SEQ ID NO 502 (antibody, IgG4, V domains shown)
VH: B1 VH
VL: B1 VL with I29V, E42Q
notes: as for B1
B29: VH SEQ ID NO 650 / VL SEQ ID NO 390 (antibody, IgG4, V domains shown)
VH: B1 VH with G45K, Y53Q, V72R, Y111P, S117L
VL: B1 VL with I29V, H34A, T51A
notes: as for B1
B30: VH SEQ ID NO 650 / VL SEQ ID NO 350 (antibody, IgG4, V domains shown)
VH: B1 VH with G45K, Y53Q, V72R, Y111P, S117L
VL: B1 VL with E42Q, Q100A, I106L
notes: as for B1
B31: VH SEQ ID NO 642 / VL SEQ ID NO 494 (antibody, IgG4, V domains shown)
VH: B1 VH
VL: B1 VL with I29V, E42Q, T51A, F83V
notes: as for B1
B32: VH SEQ ID NO 650 / VL SEQ ID NO 358 (antibody, IgG4, V domains shown)
VH: B1 VH with G45K, Y53Q, V72R, Y111P, S117L
VL: B1 VL with E42Q
notes: as for B1
B33: VH SEQ ID NO 650 / VL SEQ ID NO 502 (antibody, IgG4, V domains shown)
VH: B1 VH with G45K, Y53Q, V72R, Y111P, S117L
VL: B1 VL with I29V, E42Q
notes: as for B1
B34: VH SEQ ID NO 650 / VL SEQ ID NO 406 (antibody, IgG4, V domains shown)
VH: B1 VH with G45K, Y53Q, V72R, Y111P, S117L
VL: B1 VL with I29V, H34A, E42Q, T51A, Q100A
notes: as for B1
B35: VH SEQ ID NO 642 / VL SEQ ID NO 334 (antibody, IgG4, V domains shown)
VH: B1 VH
VL: B1 VL with E42Q, T51A
notes: as for B1
B36: VH SEQ ID NO 650 / VL SEQ ID NO 486 (antibody, IgG4, V domains shown)
VH: B1 VH with G45K, Y53Q, V72R, Y111P, S117L
VL: B1 VL with I29V, E42Q, T51A, A84G
notes: as for B1
B37: VH SEQ ID NO 650 / VL SEQ ID NO 366 (antibody, IgG4, V domains shown)
VH: B1 VH with G45K, Y53Q, V72R, Y111P, S117L
VL: B1 VL with I29L, H34A, T51A
notes: as for B1
B38: VH SEQ ID NO 642 / VL SEQ ID NO 342 (antibody, IgG4, V domains shown)
VH: B1 VH
VL: B1 VL with E42Q, T69R, Q100A, I106L
notes: as for B1
B39: VH SEQ ID NO 650 / VL SEQ ID NO 398 (antibody, IgG4, V domains shown)
VH: B1 VH with G45K, Y53Q, V72R, Y111P, S117L
VL: B1 VL with I29V, H34A
notes: as for B1
B40: VH SEQ ID NO 650 / VL SEQ ID NO 478 (antibody, IgG4, V domains shown)
VH: B1 VH with G45K, Y53Q, V72R, Y111P, S117L
VL: B1 VL with I29V, E42Q, T51A, N90Q
notes: as for B1
B41: VH SEQ ID NO 650 / VL SEQ ID NO 310 (antibody, IgG4, V domains shown)
VH: B1 VH with G45K, Y53Q, V72R, Y111P, S117L
VL: B1 VL with H34A, E42Q, T51A
notes: as for B1
B42: VH SEQ ID NO 650 / VL SEQ ID NO 430 (antibody, IgG4, V domains shown)
VH: B1 VH with G45K, Y53Q, V72R, Y111P, S117L
VL: B1 VL with I29V, H34A, E42Q, T51A, A84G
notes: as for B1
B43: VH SEQ ID NO 642 / VL SEQ ID NO 326 (antibody, IgG4, V domains shown)
VH: B1 VH
VL: B1 VL with A84G, Q100A, I106L
notes: as for B1

Biological target: T1, recombinant human activated Factor VII (FVIIa) (human, UniProt P08709 61-212; P08709 213-466, ten glutamate residues of the Gla domain may be gamma-carboxylated)
T1 construct: chains tethered by a disulfide bond; also called Factor VIIa; rFVIIa
T1 sequence 1: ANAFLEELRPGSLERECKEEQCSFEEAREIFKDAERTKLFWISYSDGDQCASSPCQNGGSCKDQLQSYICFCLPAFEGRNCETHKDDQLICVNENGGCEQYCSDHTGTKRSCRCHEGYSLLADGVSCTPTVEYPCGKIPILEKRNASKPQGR
T1 sequence 2: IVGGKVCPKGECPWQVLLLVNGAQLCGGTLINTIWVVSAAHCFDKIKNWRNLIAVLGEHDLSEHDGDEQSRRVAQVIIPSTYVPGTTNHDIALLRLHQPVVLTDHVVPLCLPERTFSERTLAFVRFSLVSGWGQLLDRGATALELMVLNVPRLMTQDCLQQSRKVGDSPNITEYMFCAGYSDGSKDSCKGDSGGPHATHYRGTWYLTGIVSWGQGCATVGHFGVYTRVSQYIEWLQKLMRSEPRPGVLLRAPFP
Assay: BLI (Fortebio)

Binder | Kd
B1 | 81 nM
B2 | 1.3 nM
B3 | 0.75 nM
B4 | 540 nM
B5 | 1.2 nM
B6 | 84 nM
B7 | 25 nM
B8 | 1.5 nM
B9 | 1.6 nM
B10 | 11 nM
B11 | 1.4 nM
B12 | 33 nM
B13 | 7.7 nM
B14 | 46 nM
B15 | 320 nM
B16 | 2600 nM
B17 | 39 nM
B18 | 47 nM
B19 | 1.6 nM
B20 | 52 nM
B21 | 600 nM
B22 | 1.6 nM

Binder | Kd
B23 | 1.1 nM
B24 | 28 nM
B25 | 120 nM
B26 | 1.9 nM
B27 | 1.6 nM
B28 | 4.6 nM
B29 | 99 nM
B30 | 0.99 nM
B31 | 10 nM
B32 | 1.1 nM
B33 | 1.3 nM
B34 | 180 nM
B35 | 1000 nM
B36 | 1.3 nM
B37 | 35 nM
B38 | 40 nM
B39 | 55 nM
B40 | 3 nM
B41 | 16 nM
B42 | 28 nM
B43 | 23 nM
